How the values were obtained:
Assay in all cases: SPR
[1] = target: CCR2 (wheat-germ proteoliposome) (human) (UniProt P41597)
[2] = target: CXCR1 (wheat-germ proteoliposome) (human) (UniProt P25024)
[3] = target: CXCR2 (wheat-germ proteoliposome) (human) (UniProt P25025)
[4] = target: C5aR (wheat-germ proteoliposome) (human) (UniProt P21730)
UniProt P21730, sequence (P21730 whole entry): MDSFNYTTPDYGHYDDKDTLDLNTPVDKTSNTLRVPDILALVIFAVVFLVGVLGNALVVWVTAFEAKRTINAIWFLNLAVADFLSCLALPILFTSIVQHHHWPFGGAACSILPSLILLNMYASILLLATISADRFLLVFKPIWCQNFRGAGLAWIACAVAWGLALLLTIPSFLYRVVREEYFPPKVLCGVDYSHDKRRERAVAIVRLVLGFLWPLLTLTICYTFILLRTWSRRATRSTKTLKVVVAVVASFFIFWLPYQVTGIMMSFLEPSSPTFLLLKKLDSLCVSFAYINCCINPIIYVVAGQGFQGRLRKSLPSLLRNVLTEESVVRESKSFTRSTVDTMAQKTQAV

UniProt P25025, sequence (P25025 whole entry): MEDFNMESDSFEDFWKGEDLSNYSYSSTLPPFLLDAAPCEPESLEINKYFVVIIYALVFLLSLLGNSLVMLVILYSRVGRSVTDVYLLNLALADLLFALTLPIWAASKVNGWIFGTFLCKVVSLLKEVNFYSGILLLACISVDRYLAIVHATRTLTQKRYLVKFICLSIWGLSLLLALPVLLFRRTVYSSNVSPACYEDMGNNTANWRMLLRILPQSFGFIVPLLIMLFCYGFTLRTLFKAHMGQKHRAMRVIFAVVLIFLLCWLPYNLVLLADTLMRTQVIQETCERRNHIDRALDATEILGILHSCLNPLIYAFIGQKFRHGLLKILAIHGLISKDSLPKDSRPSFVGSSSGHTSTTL
UniProt P25024, sequence (P25024 whole entry): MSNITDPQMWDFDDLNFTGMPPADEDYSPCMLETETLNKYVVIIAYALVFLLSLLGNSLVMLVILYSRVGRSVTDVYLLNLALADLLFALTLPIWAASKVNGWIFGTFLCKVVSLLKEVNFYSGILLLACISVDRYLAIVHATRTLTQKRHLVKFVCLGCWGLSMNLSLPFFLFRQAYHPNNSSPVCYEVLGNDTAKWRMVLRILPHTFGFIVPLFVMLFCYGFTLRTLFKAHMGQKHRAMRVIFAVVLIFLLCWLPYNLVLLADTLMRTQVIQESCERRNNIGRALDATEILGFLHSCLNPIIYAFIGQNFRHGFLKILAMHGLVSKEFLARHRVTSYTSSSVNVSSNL

Substance	Kd [1]	Kd [2]	Kd [3]	Kd [4]
MCP-1 (from UniProt P13500 24-99) (ligand)	0.84 nM	–	–	–
γ-Hemolysin component HlgA (from UniProt P0A074 30-309) (natural protein)	3.51 nM	5.69 nM	27.2 nM	–
γ-Hemolysin component HlgC (from UniProt Q07227 30-315) (natural protein)	–	–	–	5.64 nM
